Laboratory results taken from patent US20190002846A1, “POLYPEPTIDES HAVING DEMETHYLATING ACTIVITY” (Genencor International B.V., priority 2015, published 2019).

Legend:
[1] = Conversion of syringic acid, sinapic acid and syringol by crude PPOs, absorbance at 400 nm; assay type: biochemical; settings: 4 mM substrate, crude PPO 8.2 μg/mL, pH 6.0 or 7.0, 50 μM CuSO4, room temperature, 2, 22 and 118 h
Description: Syringic acid, sinapic acid and syringol (4 mM) were incubated with crude PPO2, 4, 6 and 7 from Example 5 in 100 mM BisTris buffer pH 6.0 or 7.0 with 50 μM CuSO4. Crude PPOs were dosed on target protein with a final concentration of 8.2 μg/mL. Substrate blanks prepared without the addition of enzyme and enzyme blanks without the addition of substrate were included. Incubations were performed in microtiterplates with a total reaction volume of 150 μL at room temperature for approximately 120 h. After 2, 22 and 118 h absorbance at 400 nm was measured.

[2] = Catechol oxidase activity assay: initial rate of 3-methoxycatechol oxidation at 400 nm (pH, copper and temperature optima); assay type: biochemical; settings: for pHopt: 3-methoxycatechol oxidation, room temperature, 10 μM CuSO4, Carmody buffers pH3-9; for T range / pH range: >50% of maximum activity; for [CuSO4] range: >90% of maximum activity; for Topt: A400 after 1 h incubation, 20 to 70° C., 50 mM Bis-Tris pH 7.0, 20 or 50 μM copper; for [CuSO4]opt: at optimal pH, 50 mM Bis-Tris buffer pH 7.0, CuSO4 varied 1-1000 μM
Description: PPO activity was determined by measuring the initial rate of 3-methoxycatechol oxidation at 400 nm (extinction coefficient used: ε 1200 M^−1cm^−1). One unit of activity is defined as the amount of PPO activity that oxidizes 1 μmol of 3-methoxycatechol to quinone per minute. Substrate was used at a concentration of 4 mM.
The pH optima were determined by measuring the initial rate of 3-methoxycatechol oxidation with varying pHs, at room temperature and using a CuSO4 concentration of 10 μM. The pH was varied in the range of pH3-9 using Carmody buffers. Enzyme loading was applied resulting in A400 absorbance values in the range of 0.1-1. Protein concentration was determined using the BCA method.
Optimal copper concentrations for the PPOs were determined at the optimal pH by varying the concentration of CuSO4 in the range of 1-1000 μM. In these experiments the pH was controlled using 50 mM Bis-Tris buffer pH 7.0.
Temperature optima were determined by measuring A400 absorbance after 1 h incubation at temperatures in the range of 20 to 70° C. In these experiments the pH was controlled using 50 mM Bis-Tris buffer pH 7.0. Copper concentrations of (20 or 50 μM) were used to prevent chemical oxidation as background activity at higher copper concentrations.

[3] = biological target: T1, RAC incubated with LPMO9B (Thermothelomyces thermophilus, UniProt G2QCJ3); assay: RAC hydrolysis assay with LPMO9B and PPO7 or AbTyr in the presence of phenolic reducing agents; assay type: biochemical, Myceliophthora thermophila; settings: for Activity: total release of non-oxidized and C1-oxidized gluco-oligosaccharides from RAC: LPMO9B alone = 100%, or with added enzyme, pH 5.0, 50° C., 24 h
T1 construct: made in house; host or cells: Myceliophthora thermophila C1 strain W1L#100.1Δpyr5ΔAlp1
T1 sequence (G2QCJ3 19-323): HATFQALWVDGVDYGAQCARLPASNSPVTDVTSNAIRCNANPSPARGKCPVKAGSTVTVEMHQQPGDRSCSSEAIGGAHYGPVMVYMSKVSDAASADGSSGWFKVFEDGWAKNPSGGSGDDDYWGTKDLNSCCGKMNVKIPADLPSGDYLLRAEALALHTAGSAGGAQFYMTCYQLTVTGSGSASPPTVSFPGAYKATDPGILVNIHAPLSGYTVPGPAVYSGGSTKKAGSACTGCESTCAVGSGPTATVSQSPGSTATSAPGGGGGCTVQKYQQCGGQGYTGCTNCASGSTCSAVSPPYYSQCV
Description: Phenolic reducing agents were obtained from Sigma-Aldrich (St. Louis, Mo., USA). RAC was prepared as described above and dissolved in 50 mM phospate buffer (pH 5.0) to a final concentration of 1.5 mg/ml. Copper chloride was added to a final concentration of 2.5 μM and a phenolic reducing agent to a final concentration of 2 mM. LPMO9B (5 μg/ml) with or without PPO7 (5 μg/ml) or AbTyr (7.5 U/ml) were added and incubated for 24 h at 50° C. in a head-over-tail rotator in portions of 1 mL total volume (Stuart® rotator, Bibby Scientific LTD, Stone, UK) at 20 rpm. Products were analysed by HPAEC and MALDI-TOF MS as described previously. (Frommhagen M, Sforza S, Westphal A H, Visser J, Hinz S W, Koetsier M J et al. Discovery of the combined oxidative cleavage of plant xylan and cellulose by a new fungal polysaccharide monooxygenase. Biotechnology for Biofuels. 2015; 8:101. doi:10.1186/s13068-015-0284-1). The Activity denoted as Activity * represents total release of non-oxidized and C1-oxidized gluco-oligosaccharides from RAC incubated with LPMO9B in the presence of a phenolic reducing agent and with addition of either AbTyr or PPO7. […] Standard deviations were less than 2%.

[4] = biological target: T1, RAC incubated with LPMO9B; assay: RAC hydrolysis assay with LPMO9B and PPO2, PPO7 or AbTyr in the presence of sinapic acid or syringic acid; assay type: biochemical, Myceliophthora thermophila; settings: for Activity: total release of non-oxidized and C1-oxidized gluco-oligosaccharides from RAC: LPMO9B 5 μg/ml alone = 100%, or with added enzyme, pH 5.0, 50° C., 24 h
Description: Reducing agents sinapic acid and syringic acid were obtained from Sigma-Aldrich (St. Louis, Mo., USA). RAC was prepared from Avicel by swelling it in phosphoric acid, (Zhang Y H P, Cui J, Lynd L R, & Kuang L R (2006) A transition from cellulose swelling to cellulose dissolution by o-phosphoric acid: Evidence from enzymatic hydrolysis and supramolecular structure. Biomacromolecules 7(2):644-648.). RAC was dissolved in 50 mM phospate buffer (pH 5.0) to a final concentration of 1.5 mg/ml. Copper chloride was added to a final concentration of 2.5 μM and dimethoxy containg reducing agent sinapic acid or syringic acid to a final concentration of 2 mM. LPMO9B (5 μg/ml) with or without PPO2 (5 μg/ml), PPO7 (5 μg/ml) or AbTyr (7.5 U/ml) were added and incubated for 24 h at 50° C. in a head-over-tail rotator in portions of 1 mL total volume (Stuart® rotator, Bibby Scientific LTD, Stone, UK) at 20 rpm. Products were analysed by HPAEC and MALDI-TOF MS as described previously. (Frommhagen M, Sforza S, Westphal A H, Visser J, Hinz S W, Koetsier M J et al. Discovery of the combined oxidative cleavage of plant xylan and cellulose by a new fungal polysaccharide monooxygenase. Biotechnology for Biofuels. 2015; 8:101. doi:10.1186/s13068-015-0284-1). The Activity denoted as “Activity*” represents total release of non-oxidized and C1-oxidized gluco-oligosaccharides from RAC incubated with LPMO9B in the presence of sinapic or syringic acid as a reducing agent and with addition of either AbTyr, PPO7 or PPO2. […] Standard deviations were less than 2%.

B1: PPO4: Myceliophthora thermophila C1 polyphenoloxidase with demethylating activity, mature form SEQ ID NO: 37 (protein, listed as Myceliophthora thermophila)
chain: DAVLDLQEKGRPAIDAQLAKSTTCTKEKLQVRREWGDISAEEKKAYIAAMLCIMEKPSRLDPNQFPGAKSRYDDFVVVHMNQTLSIHGTGNFLSWHRYYTWVFERALQEECGYNGTQPYWDWGRWADDPENSPIFDGSDTSLSGNGEYIEHRASGFIPAGNGGGCVKSGPFKDMVVHLGPVAPAIDPAPPANPRRDGYGDNPRCLRRDISNQLSSKYARTQDIVDLITTSADIGTFQTVMQGAGGFGVGPGGMGVHAAGHFTIAGDPGGDFYTSPNDPAFWVHHGMIDRTWTIWQSQDLDNRLQVIAGGSSMMGGPPQTLDDPVDLGVVADKVYPIRDLVSVVDGPFCYVYE
With B1 the “Conversion of substrates (absorbance at 400 nm)” value [1] was “only able to use syringic acid as a substrate”, the pHopt [2] was 7.0 and the T range [2] was 30-60 °C. The pH range [2] was 5.0-7.5, the “[CuSO4] range” value [2] was 20 to 1000 µM and the Topt [2] was 55 °C. The “[CuSO4]opt” value [2] was 200 µM.

B2: LPMO9B: Myceliophthora thermophila lytic polysaccharide monooxygenase, mature amino acid sequence SEQ ID NO: 93 (protein, listed as Myceliophthora thermophila)
chain: HATFQALWVDGVDYGAQCARLPASNSPVTDVTSNAIRCNANPSPARGKCPVKAGSTVTVEMHQQPGDRSCSSEAIGGAHYGPVMVYMSKVSDAASADGSSGWFKVFEDGWAKNPSGGSGDDDYWGTKDLNSCCGKMNVKIPADLPSGDYLLRAEALALHTAGSAGGAQFYMTCYQLTVTGSGSASPPTVSFPGAYKATDPGILVNIHAPLSGYTVPGPAVYSGGSTKKAGSACTGCESTCAVGSGPTATVSQSPGSTATSAPGGGGGCTVQKYQQCGGQGYTGCTNCASGSTCSAVSPPYYSQCV
For B2, the “Activity in the absence of a reducing agent” value ([3]; no reducing agent) was “no activity was detected”, the “Activity: total release of non-oxidized and C1-oxidized gluco-oligosaccharides from RAC” value ([3]; reducing agent 3,4-dihydroxy-5-methoxybenzoic acid 2 mM) was 100% and the “Activity: total release of non-oxidized and C1-oxidized gluco-oligosaccharides from RAC” value ([3]; reducing agent 3,4-dihydroxy-5-methoxycinnamic acid 2 mM) was 100%. The “Activity: total release of non-oxidized and C1-oxidized gluco-oligosaccharides from RAC” value ([3]; reducing agent 3,4-dihydroxybenzoic acid 2 mM) was 100%, the “Activity: total release of non-oxidized and C1-oxidized gluco-oligosaccharides from RAC” value ([3]; reducing agent 3-hydroxy-4-methoxycinnamic acid 2 mM) was 100% and the “Activity: total release of non-oxidized and C1-oxidized gluco-oligosaccharides from RAC” value ([3]; reducing agent 3-methylcatechol 2 mM) was 100%. For the same molecule, the “Activity: total release of non-oxidized and C1-oxidized gluco-oligosaccharides from RAC” value ([3]; reducing agent 4-allyl-2,4-methoxyphenol 2 mM) was 100%, the “Activity: total release of non-oxidized and C1-oxidized gluco-oligosaccharides from RAC” value ([3]; reducing agent 4-hydroxy-3-methoxyphenylactone 2 mM) was 100% and the “Activity: total release of non-oxidized and C1-oxidized gluco-oligosaccharides from RAC” value ([3]; reducing agent caffeic acid 2 mM) was 100%. The “Activity: total release of non-oxidized and C1-oxidized gluco-oligosaccharides from RAC” value ([3]; reducing agent coniferyl aldehyde 2 mM) was 100%, the “Activity: total release of non-oxidized and C1-oxidized gluco-oligosaccharides from RAC” value ([3]; reducing agent ferulic acid 2 mM) was 100% and the “Activity: total release of non-oxidized and C1-oxidized gluco-oligosaccharides from RAC” value ([3]; reducing agent gallic acid 2 mM) was 100%. For the same molecule, the “Activity: total release of non-oxidized and C1-oxidized gluco-oligosaccharides from RAC” value ([3]; reducing agent guaiacol 2 mM) was 100%, the “Activity: total release of non-oxidized and C1-oxidized gluco-oligosaccharides from RAC” value ([3]; reducing agent hesperidin 2 mM) was 100% and the “Activity: total release of non-oxidized and C1-oxidized gluco-oligosaccharides from RAC” value ([3]; reducing agent homovanillic acid 2 mM) was 100%. For the same molecule, the “Activity: total release of non-oxidized and C1-oxidized gluco-oligosaccharides from RAC” value ([3]; reducing agent vanillic acid 2 mM) was 100%, the “Activity in the absence of a reducing agent” value ([4]; no reducing agent) was “no activity was detected” and the “Activity: total release of non-oxidized and C1-oxidized gluco-oligosaccharides from RAC” value ([4]; reducing agent sinapic acid 2 mM) was 100%. The “Activity: total release of non-oxidized and C1-oxidized gluco-oligosaccharides from RAC” value ([4]; reducing agent syringic acid 2 mM) was 100%.

B3: PPO6: Myceliophthora thermophila C1 polyphenoloxidase with demethylating activity, mature form SEQ ID NO: 41 (protein, listed as Myceliophthora thermophila)
chain: AVKTVVITATTTVCPLSTRVCHGSSMISQSTNAPCSESTGITGSQSTAVTIPQSTDIISSQFSQFTDTTSSLSTGVACSSSPCPSNSQSTGTTSFESTGTTISQPTAVTNSSSTCLTSSQSTDAPSSESTGITISQSTGVTSSQSMSTPTSKSTAVPSSQSARVSTTSSSAKPSSTTETRPEPTLPNRAYPADIVDKLRDSGVDKLKEYLKSNPSNTGCTLENASIRREWSDLSVAEREEYIAAVKCLQSASPKSSKQQVPGARSRFDDFVATHINQTDSIHYTANFLSWHRYYVWAYEKALREECGYTGFQPYWNWDRYAADPANSPLFSGNSSSLSGNSVNGGCVTTGPFADMKVNLGPGASLAYNPRCLKRNISKSYAAMTTADKTYALITGSADIARFQDTMQAVPGVHAGGHFTIGGDPGGDVYSSPGDPAFWLHHAMIDRVWWIWQTHGLPGRLSEVAGSVAGSSRPGSGKDLVNLGVNGPAVAIENLLNTVGGLDGKMCYIYL
In the case of B3, the “Conversion of substrates (absorbance at 400 nm)” value [1] is reported as “able to convert syringic acid, sinapic acid and syringol”, the pHopt [2] is reported as 7.0 and the T range [2] is reported as 20-50 °C. For the same molecule, the pH range [2] was 6.0-8.5, the “[CuSO4] range” value [2] was 50 to 1000 µM and the Topt [2] was 30 °C. The “[CuSO4]opt” value [2] was 200 µM.
